Values quoted from earlier work in PMC4404502.

Target: Asp11 (position 11, …)
Experiment: fluorescence
Settings: membrane-inserted helix

Question: Which pKa does the source give for KKGLLLLLLLDLWLLLLLLLLLKKA [pL(D11) poly-Leu transmembrane model peptide (synthetic construct)] here?
Answer: 8.7
